The values that follow come from article PMC11620640.

For assay [1], the target named is raccoon dog ACE2 (rdACE2), peptidase domain (PD), wild type (raccoon dog) (UniProt B4XEP4). Nature of the assay: SPR.
Assay [2] has the same target. Put plainly: SPR; BIAcore […], 25°C, PBST (0.005% Tween-20 in PBS); […], single-cycle; 1:1 Langmuir model; […]. On the technique in general: SPR reads the build-up and loss of mass on a sensor chip optically.
The target in assay [3] is SARS-CoV-2 Alpha variant spike RBD (UniProt P0DTC2). Put plainly: SPR.

Regarding “SARS-CoV-2 Omicron BA.2 spike RBD (from UniProt P0DTC2 319-541) (domain or fragment)”, the fold decrease of affinity against PT RBD in assay [1] is over 10 fold. “SARS-CoV-2 Omicron XBB spike RBD (from UniProt P0DTC2 319-541) (domain or fragment)”: in assay [2], the fold decrease of affinity against PT RBD was found to be 10 fold. For the substance “SARS-CoV-2 PT RBD K417N variant (from UniProt P0DTC2 319-541) (domain or fragment)”, in assay [1], the fold decrease of affinity against PT RBD is over 6 fold. One may read the Kd as the constant that tells how readily two partners part at equilibrium. The substance “raccoon dog ACE2 (rdACE2), peptidase domain (PD), wild type (from UniProt B4XEP4) E38D” had a dissociation constant Kd in assay [3] of 12.4 nM.

For “raccoon dog ACE2 (rdACE2), peptidase domain (PD), wild type (from UniProt B4XEP4) L24Q”, the Kd in assay [3] was 42.9 nM.

In the case of “raccoon dog ACE2 (rdACE2), peptidase domain (PD), wild type (from UniProt B4XEP4) R353K”, the equilibrium dissociation constant (Kd) in assay [3] came out at 59.4 nM.
